Data published in the nanobody polyreactivity screen of Harvey et al. (2022).

Experiment: yeast display, Sf9 membrane polyspecificity reagent, FACS + sequencing; frameworks hold sequencing errors
Method in brief: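 Synthetic nanobody libraries on Saccharomyces cerevisiae BJ5465 were galactose-induced for 36–48 hours, stained 1 hour at 4 °C with 10% biotinylated, detergent-solubilized Sf9 membrane reagent and enriched on streptavidin microbeads. FACS then separated cells into low and high (top ~1%) gates by anti-HA (expression) and streptavidin (reagent binding) fluorescence. Genes were colony-PCR amplified, MiSeq 2 × 250 sequenced and CDR-length filtered. A clone's polyreactivity label is that of its gate of origin.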

Row | Sequence | polyreactivity (PSR sort gate)
1 | QVQLVESGGGLVQAGGSLRLSCAASGISFAIYAMGWYRQAPGKERELVAAISARGGTYYADSVKGRFTISRDNANNTVYSQMNSLKPEDTAVYYCNTDYVSRDDWDYRRYDYWGQGTQVTVSS | low polyreactivity
2 | QVQLVESGGGLVQAGGSLRLSCAASGSISLAYAMGWYRQAPGKERELVAAISFRTGRTFYADSVKGRFTISRDNAKNTVYLQMNSLKPEDTAVYYCAAENLDFYFEEYWGQGTQVTVSS | high polyreactivity
3 | QVQLVESGGGIVQAGGILRLSCAASGSTFAGNGMGWYRQAPGKERELVAGIDVTGGSKYYADSVKGRYTISRDNAKNTVYLQMNSLKPEDTAVFDCNARYVYHSSFAGFDYWGQGTQVTVSS | low polyreactivity
4 | QVQLVESGGGLVQAGGTLRLSCAASRITFWYYARGWYIQAPGKERELVAAITSGGSTYYADSVKGRFTISRDNAKNTVYLQMNSLKPEDTAVYYCAKDSVWGAKNLTSYKYYYWGQGTQVTGSS | low polyreactivity
5 | QVQLVESGGGLVQAGGSLRLSCAASGFIFKGYAMGWYRQAPGKERELVATINWSGGRTYYADSVKGRFTISRDNAKNTVYLQMNSLKPEDTAVYYCNVQVGTYAWWYRVGSWYDYWGQGTQVTVSS | high polyreactivity
6 | QVQLVESGGGLVQAGGSLRLSCAASGGTFGVYYAMGRYRQAPGKERELVADISWSAGSTYYADSVKGRFTISRDNAKNTVYLQMNSLKPEDTAVYYCAARYAVYWPWYVREYDYWGQGTQVTVSS | low polyreactivity
7 | QVQLVESGGGLVQAGGSLRLSCAASGFIYGSNAMGWYRQAPGKERELVAAISRSGGSTYYADSVKGRFTISRDNAKNTVYLQMNSLKPEDTAVYYCNVDLWTFVYSWWSYDYWGQGTQVTVSS | high polyreactivity
8 | QVQLVESGGGLVQAGGSLRLSCAATGFTFRTYAMGWYRQAPGKERELVAAITVSGGTYYADSVKGRFTITRDNAKNSFYFQMISLKPEDTAVYYCTAKRFRTGFDYWGQGTQVTVSS | low polyreactivity
9 | QVQLVESGGGLVQAGGSLRLSCAASGFTFYYYAMGWYRQAPGKERELVAAISRGGGNTYYADSVKGRFTISRDNAKNTVYLQMNSLKPEDTAVYYCAARRPVYRIYGDRGRWYNYWGQGTQVTVSS | high polyreactivity
10 | QVQLVESGGGLVQAGGSLRLSCAASGGIFVGNAMGWYRQAPGKERELVAAISQRGGRTYYADSVKGRFTISRDNAKNTVYLQMNSLKPEDTAVYYCAAGYWLSTDSGYPFQYYLYDYWGQGTQVTVSS | high polyreactivity
11 | QVQLVESGGGLVQAGGSLRLSCAASGSTFLYYAMGWYRQAPGKERELVAVISWSGVSTYYADSVKGRFTISRDNAKNTVYLQMNSLKPEDTPVYYCNTGNQYIRTYGYWGQGSQVTVSS | low polyreactivity
12 | QVQLVETGGGLVQAGGILRLSCAASGRIFGYNTMGWYRQAPGKERELVARISYDVDSTYYADSVKGRFTISRDNAKNTVYLQMNSLKPEDTAVYYCNARRSNLGSYIEYFGFDYWGQGTQVTVSS | low polyreactivity
13 | QVQLVESGGGLVQAGGSLRLSCAASGLTFGRNAMGWYRQAPGKERELVAAISRSGGRTSYADSVKGRFTISRDNAKNTVYLHMNSLKPEDTAVYYCAARSPIYRTTYYYWGQGTQVTVSS | high polyreactivity
14 | QVQLVESGGGLVQAGGSLRLSCAASGFTFRTYAMGWYTQAPGKERELVADISGSGGSTYYADSVKGRFTISRDNAKNTVYLQMNSLKPEDTAVYYCAADYASWSNWGYEYWGQGTQVTVSS | high polyreactivity
15 | QVQLVESGGGLVQAGGSLRLSCAASGIILGVYAMGWYRQAPGKEREFVAAITSSGGSTYYADSVKGRFTISRDNAKNTVYLQMNSLKPEDTAVYYCAADFDTSVRLYGPTRYDYWGQGTQVTVSS | low polyreactivity
16 | QVQLVESGGGLVQAGGSLRLSCAESGLILAGYTMGWYRQAPGKESELVAAISDRGGSTYYADSVKGRFTISRDNAKNTVYLQMNSLKPEDTAVYYCNAFVYSYALTPSYAGDYWGQGTQVTVSS | low polyreactivity
17 | QVQLVESGGGLVQAGGSLRLSCAASGSIFYYYAMGWYRQAPGKERELVASITSGGSTYYADSVKGRFTISRDNAKNTVYLQMNILKPEDTAVYYCAADVYRTWYWWFDYWGQGTQVTVSS | high polyreactivity
18 | QVHLVESGGSLVQAGGSLRLSCAASGFIFSWYAMGWYRQAPGKERELLAAISHEGGYTYYADSVKGRFTISRDNSKNNVYLQMYSLKPEDTAVYYCAPAFRAAGRSVRYYWGHGTQVTVSS | high polyreactivity
19 | QVQHVESGGGLVQAGGSLRLSCAASGFIFDNYAMGWYRQSPGKERELVAAISRSGGSTYYADSVKGRFTISRDNAKTTVYLQMNSLKPEDTAVYYCATSGPRGWSLHDYWGQGTQVTVSS | high polyreactivity
20 | QVHLVESGGGLVQAGGSLRLSSAASGITFYGNAMGWYRQAPGKERELVATISSGGSTNYADSVKGRFTISRDNAKNTVYLQMHSLKPEDTAVYYCNAAPDVNRDYEGSGDYWGQGTQVTVSS | low polyreactivity
21 | QVQLVESGGGLVQAGGTLRLSCAASGRTFRQNAMGWYRQAPGKERELVAAISVNGGRTYYADSVKGRFTITRDNAKITVYLQMNSLKPEDTAVYYCAAESYRIPRRSGYDYWGQGTQVTVSS | high polyreactivity
22 | QVQLVESGGGLVQAGGSLRLSCAASGSTFENYVRGWYRQAPGKERELFAAISRGGGSTHYADSVKGRFTISRDNAKITVYLQKKSLKPEDTAVYYCAARYQTYVGSSSISTGIYYYWGQGTQVTVSS | low polyreactivity

Row | Sequence | polyreactivity (PSR sort gate)
23 | QVQLVESGGGLVQAGGSLRLSCAASGSTFLVNAMGWYRQAPGKERELVAAITSGGDTNYADSVKGRFTISHDNAKNTVYLQMNSLKPEDTEVYYCATDYFNYRYFDFRWYYYWGQGTQVTVSS | high polyreactivity
24 | QVQLVESGGGLVQAGGSLRLSCAASGIIFSTYAMGWYRHAPWKERELVAAITRGDSTNYADSVKGRFTISRDNAKNTVYLQMNSLKPEDTAVYYCAVDKRYGRVVGRDYDYWGQGTQVTVSS | high polyreactivity
25 | QVQLVESGGGLVQAGGSLRLSCAASRRNFGRYAMGWYRQAPGKETELVARISSGGSTHYADSVKGRFTISRDNAMNSVFLQMNSLKPEDTAVYYCAAGWGYWRSYGSWGQGTEVTVSS | high polyreactivity
26 | QVHLVESAVRLVQAGGSLRLSCAAPGFTFFSNARGWYRQAHGKERELFASITNDGSTYADSVKGRFTISRDNAMNTVYLQMTSLKPEDTAVYYCAARVPQWRYSRRTRERFDFWGQGTQVTVSS | low polyreactivity
27 | QVQLVESGAGLVQAGGSLLLSCAASAFIFTPYTKGWYRQAPGKETELVAAITDGSSTYYADSVKRRFTISRDNAQNTVYVQMNSLKPEDTAVYYCNADTLTTTRRFNPYDYRGQGTQVTVSS | low polyreactivity
28 | QVQLVESGGGLVQAGGSLRLSCAASGRTFRIYAMGWYRQAPGKERELVASISWSGGSTYYADSVKGRFTISRDNAKNTVYLQMNSLKPEDTAVYYCAADYPFIALYDYWGQGTQVTVSS | low polyreactivity
29 | QVQLVESGGGLVQAGGSLRLSCAASGFIFAYNAMGWYRQAPGKERELVAAISIDTSTYYADSVKGRFTISRDNAKNTVYLQMNSLKPEDTAVYYCAADHVPFRLTELYYWGQGTQVTVSS | low polyreactivity
30 | QVQPVESGGGLVQAGGSLRLSCAASGFIFSSYAMGWYRQAPGKERELVAAITSGGSTNYADSVKGRFTISRDNAKNTVYLQMNSMKPEDTAVYYCATVPGGSWFFHWWSTGGDDEYWGQGTQVTVSS | low polyreactivity
31 | QVQIVDSGAVIVQAGGSLRLSCDASGRIILINAMGWYRQAPGKERELVAAITSSGGSTYYADSVKGRFTISRDNAKNTVYLQMNSLKPEDTAVYYCAAARYSRYDYWGQGTQVTVSS | high polyreactivity
32 | QVQLVESGGGLVQAGGSLRLSCAASGSTFRYNAMGWYRQAPWKERELVAAITSGGSTYYADSVKGRFTISRDNAKNTVYLQMNSLKPEDTAVYYCAALWQSRWYKMDYWGQGTQVTVSS | high polyreactivity
33 | QVQLVESGGGLVQAGGSLRLSCAASGRTFYPYAMGWYRQAPGKERELVAAISSGGGSTYYADSVKGRFTISRDNAKNTVYLQMNSLKPEDTAVYYCAKRAGWAGWYYRNDYWGQGTQVTVSS | high polyreactivity
34 | QLQLVESVGGLVQAGGSLRLSCAASGGIFNVNALGWYRQAPGKERELVAAISLSGSNTYYADSVKGRFTISRDNAKNTVYLQMNSLKPEDTAVYYCNADYVYRRYGYWGQGTQVTVSS | high polyreactivity
35 | QVQLVESGGGLVQAGGSLRLSCAASGLIFQVYDMGWYRQAPGKERELDAAISSGSNTNYADSVKGRFTISRDNAKNTVYLQMNSLIPEDTAVYYCAASWGYGGLTPDMGYWGQGTHVTVSS | low polyreactivity
36 | QVQLVESGGGLVQAGGSLRLSCAASGRIFVSNAMGWYRQAPGKERELVAGINSGDRTYYADSVKGRFTISRDNAKNTVYLQMNSLNPEDTAVYYFADSSRRGTGLRYYWGQGTQVTVSS | high polyreactivity
37 | QVQLVESGGGLVQAGGSLRLSCAASGRIFRRNAMGWYRQAPGKERELVAAITSSGGNTYYADSVKGRFTISRDNAKNTVYLQMNSLKPEDTAVYYCAAELRPYITYDGPRKKFYYWGQGTQVTVSS | high polyreactivity
38 | QVQLVESGGGLVQEGGSLRLSCAASVRIFSDYAMGWYIQAPGKERELVATITSGDSTNYADSVKGRFTISRDNAKNTVYLQMNSLKPEDNAVYYFNADRFADYDYWGQGTQVTVSS | low polyreactivity
39 | QVQLVESGGGLVQAGGSLRLSCAASGRIFIWYTMGWYRQAPGNERELVASITGGGGSTYYADSVKGRFTISRDNAKNTVYFQMNSLKPEETAVYDCNAVYRRRYDYWGQGTQVTVSS | high polyreactivity
40 | QDQLVESGGGLVQAGGSLRLSCAASGFTFGTYAMGWYRQAPGKERELVAAISARGGSTYYADSVKGRFTISRDNAKNTVYLQMNSLKPEDTAVYYCAAYYGRHVTPPTGYDYWGQGTQVTVSS | high polyreactivity
41 | QVQLVESGGGLVQAGGSLRLSCAASGSTFHPNAMGWYIQAPGKERQLVAAISRGGSTNYADSVKGRFTISRDNAKNTVYLQMNSLKPEDTAVYYCAKDFFGISSDPVDMDYWGQGTQVTVSS | low polyreactivity
42 | QVQLVESGGGLVQAGGSLRLSCAASGFIFIHYAMGWYRQAPGKERELVAAINRRGSRTYYADSVKGRFTISRDNAKNTVYLQMNSLKPEDSAVYYCAAGSRTEYDYWGQGSQVTVSS | high polyreactivity
43 | QVQLVESGGGLVQAGGSLRLTCAASGSTFWSYGMGWYRPAPGKERELVAAITRGGSTYYADSVKGRFTISRDNAKNTVYLQMNSLIPEDTAVYYCAAGISVRWSPSYYYWGQGTQVTVSS | high polyreactivity
